Consider three substances from US20250059282A1.

Test [1] has as its target Human PD-L2-HIS (human) (UniProt Q9BQ51). The test is described as follows: Octet binning; competitor PDL2-23. (In general: BLI is a label-free optical method that tracks binding on a fibre tip over time.)
The target is the same in test [2]. The test is described as follows: Octet binning; competitor PDL2-21.
For test [3] the target is unchanged. The test is described as follows: Octet binning; competitor PDL2-13 (column 11).
The target is the same in test [4]. The test is described as follows: Octet binning; competitor BiPDL4-13.
Test [5] shares this target. The test can be described thus: Octet binning; competitor BiPDL4-11.
The target is the same in test [6]. The test is described as follows: Octet binning; competitor 24F.10C12.
For test [7] the target is unchanged. The test can be described thus: Octet binning; competitor PDL2-13 (column 7).
The target is the same in test [8]. The test can be described thus: Octet binning; competitor BiPDL4-12.
For test [9] the target is unchanged. The test is described as follows: Octet binning; competitor MIH18.
Test [10] has the same target. The test is described as follows: Octet binning; competitor BiPDL4-14.
For test [11], the target named is PD-1 (on Jurkat T Cell).
The target in test [12] is PD-1 (on Jurkat T Cell). The source holds these as a separate data set.

Human PD-L2-HIS (human), sequence (Q9BQ51 20-220): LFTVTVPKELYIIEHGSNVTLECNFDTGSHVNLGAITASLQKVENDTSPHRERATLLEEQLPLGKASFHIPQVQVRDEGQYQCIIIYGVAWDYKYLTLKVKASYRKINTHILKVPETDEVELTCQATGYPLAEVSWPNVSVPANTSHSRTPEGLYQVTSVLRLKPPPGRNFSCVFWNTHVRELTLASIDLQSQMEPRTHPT

With 24F.10C12 (antibody), the % of unblocked Ab2 binding signal with Human PD-L2-HIS (human) [1] was determined as 5.98%; in the test with Human PD-L2-HIS (human) [2], 5.24%; in the test with Human PD-L2-HIS (human) [3] it was 6.3%; in the test with Human PD-L2-HIS (human) [4], 56.9%; in the test with Human PD-L2-HIS (human) [5], 50.5%; with Human PD-L2-HIS (human) [6], 4.99%. The % of unblocked Ab2 binding signal with Human PD-L2-HIS (human) [7] was found to be 7.11%; with Human PD-L2-HIS (human) [8], 57.5%; in the test with Human PD-L2-HIS (human) [9], 63.8%; with Human PD-L2-HIS (human) [10] it was 62.8%.
Keytruda (antibody): the EC50 (read off the curve); Fold induction of luciferase, Promega: CHO-PD-L1/PD-L2 dual cells with PD-1 Jurkat reporter cells with PD-1 (on Jurkat T Cell) [11] is 0.7 nM. This substance had an EC50 (read off the curve); Luc Activity, Promega CHO-PDL1/PD-L2 dual cells with NFAT-Luc Jurkat T cells with PD-1 (on Jurkat T Cell) [12] of 2 nM.
Turning to MIH18 (antibody), the % of unblocked Ab2 binding signal with Human PD-L2-HIS (human) [1] was determined as 70.3%; with Human PD-L2-HIS (human) [2] it was 74.7%; in the test with Human PD-L2-HIS (human) [3], 82.5%; with Human PD-L2-HIS (human) [4] it was 57%; with Human PD-L2-HIS (human) [5], 47.9%; in the test with Human PD-L2-HIS (human) [6] it was 71.4%. Besides, the % of unblocked Ab2 binding signal with Human PD-L2-HIS (human) [7] worked out at 73.7%; with Human PD-L2-HIS (human) [8], 60.6%; in the test with Human PD-L2-HIS (human) [9] it was 5.73%; in the test with Human PD-L2-HIS (human) [10], 63.4%.
